Key:
[1] = target: T1, human Ang2 (human, UniProt O15123 19-496, limits assumed); assay: ELISA, relative binding activity; 120 mg/mL formula, 40 C, 2W
T1 construct: Bought proteins; also called hAng2-biotin; Ang2-Bio (Sino)
T1 sequence (looked up): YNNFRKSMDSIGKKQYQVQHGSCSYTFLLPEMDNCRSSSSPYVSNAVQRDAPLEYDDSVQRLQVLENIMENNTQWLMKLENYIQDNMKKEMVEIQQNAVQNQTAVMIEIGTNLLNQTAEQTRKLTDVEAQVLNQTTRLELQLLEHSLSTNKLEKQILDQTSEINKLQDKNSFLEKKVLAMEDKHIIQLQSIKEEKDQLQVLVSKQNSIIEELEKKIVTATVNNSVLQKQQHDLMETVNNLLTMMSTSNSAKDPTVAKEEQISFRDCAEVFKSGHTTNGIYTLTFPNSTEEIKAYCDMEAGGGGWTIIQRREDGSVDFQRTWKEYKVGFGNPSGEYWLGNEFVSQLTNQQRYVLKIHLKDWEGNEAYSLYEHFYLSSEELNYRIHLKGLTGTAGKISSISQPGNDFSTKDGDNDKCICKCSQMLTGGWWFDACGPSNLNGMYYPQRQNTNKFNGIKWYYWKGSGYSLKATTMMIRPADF

[2] = target: T2, human VEGF165 (human, UniProt P15692-4 27-191); assay: ELISA, relative binding activity; final formula 40 mg/mL, 25 C, 2M
T2 construct: all are put under this molecule; also called VEGF A; VEGFA

[3] = target: T1, human Ang2; assay: as above
[4] = target: T2, human VEGF165; assay: ELISA, relative binding activity; final formula 40 mg/mL, 2-8 C, 6M
[5] = target: T1, human Ang2; assay: as above
[6] = target: T2, human VEGF165; assay: ELISA, relative binding activity; IEX04-012 about 40 mg/mL in F1, 40 C, 1 week
[7] = target: T1, human Ang2; assay: as above
[8] = target: T2, human VEGF165; assay: ELISA, relative binding activity; IEX04-012 about 40 mg/mL in F5, 40 C, 1 week
[9] = target: T1, human Ang2; assay: as above
[10] = target: T2, human VEGF165; assay: ELISA, relative binding activity; IEX04-012 about 40 mg/mL in F6, 40 C, 1 week
[11] = target: T1, human Ang2; assay: as above
[12] = target: T2, human VEGF165; assay: ELISA, relative binding activity; IEX04-012 about 40 mg/mL in F1, 40 C, 2 weeks
[13] = target: T1, human Ang2; assay: as above
[14] = target: T2, human VEGF165; assay: ELISA, relative binding activity; IEX04-012 about 40 mg/mL in F5, 40 C, 0 weeks
[15] = target: T1, human Ang2; assay: as above
[16] = target: T2, human VEGF165; assay: ELISA, relative binding activity; IEX04-012 about 40 mg/mL in F6, 40 C, 2 weeks
[17] = target: T1, human Ang2; assay: as above
[18] = target: T2, human VEGF165; assay: ELISA, relative binding activity; IEX04-012 about 40 mg/mL in F7, 40 C, 0 weeks
[19] = target: T1, human Ang2; assay: as above
[20] = target: T2, human VEGF165; assay: ELISA, relative binding activity; IEX04-012 about 40 mg/mL in F7, 40 C, 2 weeks
[21] = target: T1, human Ang2; assay: as above
[22] = target: T2, human VEGF165; assay: ELISA, relative binding activity; IEX04-012 about 40 mg/mL in F8, 40 C, 0 weeks
[23] = target: T1, human Ang2; assay: as above
[24] = target: T2, human VEGF165; assay: ELISA, relative binding activity; IEX04-012 about 40 mg/mL in F8, 40 C, 2 weeks
[25] = target: T1, human Ang2; assay: as above

T2 sequence (P15692 other isoform, or with tags, fused parts or gaps limits assumed): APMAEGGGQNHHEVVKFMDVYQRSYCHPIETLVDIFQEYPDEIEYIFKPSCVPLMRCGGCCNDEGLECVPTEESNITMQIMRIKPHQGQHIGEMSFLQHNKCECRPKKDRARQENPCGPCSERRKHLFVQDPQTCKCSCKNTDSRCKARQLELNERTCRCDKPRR

B1: IEX04-012 (bispecific antibody)
chain: DIQLTQSPSSLSASVGDRVTITCSASQDISNYLNWYQQKPGKAPKVLIYFTSSLHSGVPSRFSGSGSGTDFTLTISSLQPEDFATYYCQQYSTVPWTFGCGTKVEIKGGGGSGGGGSGGGGSGGGGSEVQLVESGGGLVQPGGSLRLSCAASGYDFTHYGMNWVRQAPGKCLEWVGWINTYTGEPTYAADFKRRFTFSLDTSKSTAYLQMNSLRAEDTAVYYCAKYPYYYGTSHWYFDVWGQGTLVTVSSGGGGSGGGGSGGGGSEVQLLESGGGLVQPGGSLRLSCAASGFALDYYAIGWFRQAPGKGLEGVSCISSGEGSTYYADSVKGRFTISRDNSKNTVYLQMNSLRAEDTAVYYCATDSRGDDVACEGLRRNEYDYWGQGTLVTVSS
- Relative binding Activity to Ang2 (ELISA, %) [1]: 81%
- Relative binding Activity to VEGF A (ELISA, %) [2]: 102%
- Relative binding Activity to Ang2 (ELISA, %) [3]: 84%
- Relative binding Activity to VEGF A (ELISA, %) [4]: 99%
- Relative binding Activity to Ang2 (ELISA, %) [5]: 100%
- Relative binding Activity to VEGF (ELISA, %) [6]: 98%
- Relative binding Activity to Ang2 (ELISA, %) [7]: 103%
- Relative binding Activity to VEGF (ELISA, %) [8]: 98%
- Relative binding Activity to Ang2 (ELISA, %) [9]: 82%
- Relative binding Activity to VEGF (ELISA, %) [10]: 98%
- Relative binding Activity to Ang2 (ELISA, %) [11]: 96%
- Relative binding Activity to VEGF (ELISA, %) [12]: 101%
- Relative binding Activity to Ang2 (ELISA, %) [13]: 100%
- Relative binding Activity to VEGF (ELISA, %) [14]: 100%
- Relative binding Activity to Ang2 (ELISA, %) [15]: 100%
- Relative binding Activity to VEGF (ELISA, %) [16]: 99%
- Relative binding Activity to Ang2 (ELISA, %) [17]: 89%
- Relative binding Activity to VEGF (ELISA, %) [18]: 100%
- Relative binding Activity to Ang2 (ELISA, %) [19]: 100%
- Relative binding Activity to VEGF (ELISA, %) [20]: 100%
- Relative binding Activity to Ang2 (ELISA, %) [21]: 87%
- Relative binding Activity to VEGF (ELISA, %) [22]: 100%
- Relative binding Activity to Ang2 (ELISA, %) [23]: 100%
- Relative binding Activity to VEGF (ELISA, %) [24]: 102%
- Relative binding Activity to Ang2 (ELISA, %) [25]: 91%

From EP4628097A1 (Innovent Biologics (Suzhou) Co., Ltd., dated 2025)
